Data published in patent publication US5968514.
Values joined by “and” are separate entries in the source; they are usually repeats but may differ in a detail not shown here. Identical values can stand only once.

Tests used:
[1] = biological target: HLA-DR on Raji cells (human); assay: antibody blocking of labelled peptide binding to Raji cells
[2] = biological target: class II MHC antigens on antigen-presenting cells of human peripheral mononuclear cells
[3] = biological target: class II MHC antigens on antigen-presenting cells of human peripheral mononuclear cells; remark: listed apart in the source
[4] = biological target: human class II MHC molecules on Raji cells; assay: competition with ^125 I-HIV-1 Nef(123-160) on Raji cells
[5] = biological target: human class II MHC molecules on Raji cells
[6] = biological target: class II MHC antigens on antigen-presenting cells of human peripheral mononuclear cells; remark: listed apart in the source
[7] = biological target: DR1 on DR1-transfected L cells (Homo sapiens (Human)) (UniProt P01903)
[8] = biological target: human class II MHC molecules on Raji cells; remark: listed apart in the source
[9] = biological target: murine class II MHC molecules on A20 cells (I-A^d and I-E^d); assay: competition with ^125 I-MMTV ORF(76-119) on A20 cells
[10] = biological target: murine class II MHC molecules on A20 cells (I-A^d and I-E^d)
[11] = biological target: human class II MHC molecules on Raji cells; assay: competition with ^125 I-SEA on Raji cells
[12] = biological target: murine class II MHC molecules on A20 cells (I-A^d and I-E^d); assay: dose-response competition with ^125 I-SEA on A20 cells

For “Clone L243, a monoclonal antibody specific for HLA-DR”, which percent reduction of ^125 I-HIV-1 Nef(123-160) binding [1] is on record?
Its percent reduction of ^125 I-HIV-1 Nef(123-160) binding is 35%.

With “HIV-1 Nef protein (from UniProt P03406) (ligand)” as the substance, how does the IFNγ (U/ml) in supernatants of whole PMNC, 96 h [2] read?
The IFNγ (U/ml) in supernatants of whole PMNC, 96 h was 1500 U/ml.

What about the stimulation index (SI) of proliferation of whole human PMNC [3] of the same substance?
Its stimulation index (SI) of proliferation of whole human PMNC is 26.4 SI.

What does the source list for HIV-1 Nef(123-160) (peptide)?
IC50 [4]: 30000 nM; percent reduction of ^125 I-SEA binding [5]: 20% and 40%; stimulation index (SI) of human PMNC proliferation induced by Nef [6]: 3.9 SI; stimulation index (SI) of human PMNC proliferation induced by SEA [6]: 6.2 SI

For HIV-1 Nef(156-186) (peptide), which stimulation index (SI) of human PMNC proliferation induced by Nef [6] is on record?
The stimulation index (SI) of human PMNC proliferation induced by Nef was 19.6 SI.

What about the stimulation index (SI) of human PMNC proliferation induced by SEA [6] of the same substance?
The stimulation index (SI) of human PMNC proliferation induced by SEA was 16.6 SI.

Which IC50 [4] does the source give for SEE (from UniProt P12993) (ligand) here?
The IC50 was 2000 nM.

With “staphylococcal enterotoxin A (from UniProt P0A0L2) (ligand)” as the substance, how does the CPM bound in the absence of competitors [7] read?
Its CPM bound in the absence of competitors is 5710 CPM.

And the CPM bound in the absence of competitors [8]?
The CPM bound in the absence of competitors was 31500 CPM.

And the IC50 [9]?
Its IC50 is 1800 nM.

And the CPM bound in the absence of competitors [10]?
Its CPM bound in the absence of competitors is 6380 CPM.

And the IFNγ (U/ml) in supernatants of whole PMNC, 72 h [2]?
Its IFNγ (U/ml) in supernatants of whole PMNC, 72 h is 3000 U/ml.

And the IC50 [11]?
Its IC50 is 200 nM.

And the stimulation index (SI) of proliferation of whole human PMNC [3]?
The stimulation index (SI) of proliferation of whole human PMNC was 164 SI.

What about the fold more effective a competitor than MMTV ORF(76-119) [12] of the same substance?
The fold more effective a competitor than MMTV ORF(76-119) was 20 times.
